# Data as given in the nanobody polyreactivity screen of Harvey et al. (2022).
# Test: yeast display, Sf9 membrane polyspecificity reagent, FACS + sequencing; frameworks hold sequencing errors
# In short: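 Galactose induction of a Saccharomyces cerevisiae BJ5465 synthetic nanobody display library ran 36–48 hours. The cells were then stained for 1 hour at 4 °C with 10% biotinylated, detergent-solubilized Sf9 membrane reagent, pulled down on streptavidin microbeads and FACS-sorted into low and high (top ~1%) gates on expression and reagent-binding fluorescence. Labels for polyreactivity follow the gate of origin.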
row,Sequence,polyreactivity (PSR sort gate)
1,QVQLVESGGGLVQAGGSLRLSCAASGSIFKQYAMGWYRQAPGKERELVAAITWRGTGTYYADSVKGRFTISRDNAKNTVYLQMNSLKPEDTAVYYCAAKWYRRTYGYLPYTGIVNYDYWGQGTQVTVSS,high polyreactivity
2,QVQLVESGGGLVQAGGSLRLSCAASGSIFKRNAMGWYRQAPGKERELVAAIRVNGGITYYADSVKGRFTISRDNAKNTVFLQMNSLKPEDTSVYYCAVYSRQGLGYWGQGTQVTVSS,high polyreactivity
3,QVQLVESGGGLVQAGGSLRLSCAASGSIFKSNAMGWYRQAPGKERELVAAISNGGITNYADSVKGRFTISRDNAKNTVYLQMNSLKPEDTAVYYCATSDVREIWVDYWGQGTQVTVSS,low polyreactivity
4,QVQLVESGGGLVQAGGSLRLSCAASGSIFKTYAMGWYRQAPGKERELVAAITSGVSTNYADSVKGRFTISRDNAKNTVYLQMNSLKPEDTAVYYCNVDTSSPSRRDYDYWGQGTQVTVSS,low polyreactivity
5,QVQLVESGGGLVQAGGSLRLSCAASGSIFKVYAMGWYRQAPGKEREFVAAITSSDSNTNYADSVKGRFTISRDNAKNTDYLQMNSLKPEDTAVYYCNARIYTRRYVPHYGFNYWGQGTQVTVSS,low polyreactivity
6,QVQLVESGGGLVQAGGSLRLSCAASGSIFKVYAMGWYRQAPGKEREFVAAITSSDSNTNYADSVKGRFTISRDNAKNTVYLQMNSLKPEDTAVYYCNARIYTRRYVPHYGFNYWGQGTQVTVSS,low polyreactivity
7,QVQLVESGGGLVQAGGSLRLSCAASGSIFKYNDMGWYRQAPGKERELVAAITSDSSTYYADSVKGRFTISRDNAKNTVYLQMNSLKPVDTAVYYCAADTTGFTTYAYWYDYWGQGTQVTVSS,low polyreactivity
8,QVQLVESGGGLVQAGGSLRLSCAASGSIFKYNTMGWYRQAPRKERELVAAINGGGSTYYADSVKGRFTISRDNAKNTVYLLMNSLKPEDTAVYYCNARQWYWESPDDYWGQGTQVTVSS,low polyreactivity
9,QVQLVESGGGLVQAGGSLRLSCAASGSIFKYYAMGWYRQAPGKERELVAAISRSGSNTYYADSVKGRFTISRDNPKNTVYLQMNSLKPEDTAVYYCAAVKGPERPTSPYDYWGQGTQVTVSS,high polyreactivity
10,QVQLVESGGGLVQAGGSLRLSCAASGSIFKYYAMGWYRQAPGKERELVAAISSGGITNYADSVKGRFTISRDNAKNTVYLQMNSLKPEDTAVYYCAARDYVRFGLYDYDYWGQGTQVTVSS,low polyreactivity
11,QVQLVESGGGLVQAGGSLRLSCAASGSIFKYYAMGWYRQATGKERELVAAISSGGSTKYADSVKGRFTITRDNAKNTVYLQMNSLKPEDTAVYYCAARDPSRHARRAYDYWGQGTQVTVSS,low polyreactivity
12,QVQLVESGGGLVQAGGSLRLSCAASGSIFLANAMGWYRQAPGKERELVAGISSSVTTNYADSVKGRFTISRDNAKNTVYLQMNSLKPEDTAVYYSNAVYGVYDFNYWVQGTQVTVSS,low polyreactivity
13,QVQLVESGGGLVQAGGSLRLSCAASGSIFLDNAMGWYRQAPGKERELVAAISKSGTRTYYADSVKGRFTISRDNAKTTVYLQMNSLKPEDTAVFYCNVVPKQAKRVELIGYYYWGQGTQVTVSS,high polyreactivity
14,QVQLVESGGGLVQAGGSLRLSCAASGSIFLDYAMGWYRQAPGKERELVATITSGSSTYADSVKGRFTISRDNAKNTVYLQMNSLKPEDTAVYYCNVKLIVRYWNPSPYDYWGQGTQVTVSS,low polyreactivity
15,QVQLVESGGGLVQAGGSLRLSCAASGSIFLEYTMGWYSQAPGKECVLVAAITSGGSTKYADSVKGRFTISRDTAKNTVYLQMNILKPEDTAVYYCNARHYSREFDYWGQGTQVTVSS,low polyreactivity
16,QVQLVESGGGLVQAGGSLRLSCAASGSIFLFNTMGWYRQAPGKERELVAVISRGGITYYADSVKGRFTISRDNAKNTVYLQMNSLKPEDTAVYYCAADGGYWSQYDYWGQGTQVTVSS,low polyreactivity
17,QVQLVESGGGLVQAGGSLRLSCAASGSIFLGYAMGWYRQAPGKERELVAAITSGGSTNYADSVKGRFTISRDNAKNTVYLQMNSLKPEDTAVYYCAAKGEWSLVYTDYDYWGQGTQVTVSS,low polyreactivity
18,QVQLVESGGGLVQAGGSLRLSCAASGSIFLGYTMGWYRQAPGKERELVAAINSSGGSTYYADSVKGRFTISRDNAKNTVYLQMNSLKAEDTAVYYCADANSILLFDSWGQGTQVTVSS,low polyreactivity
19,QVQLVESGGGLVQAGGSLRLSCAASGSIFLIYAMGWYRQAPGKERELVAAIDWGGGANTYYADSVKGRFTISRDNAKNTVYLQMNSLKPEDTAVYYCAVDSYTSGYEYWGQGTQVTVSS,low polyreactivity
20,QVQLVESGGGLVQAGGSLRLSCAASGSIFLIYAMGWYRQAPGKERELVAAISSGGSTYYADSVKGRFTISRDNAKNTVYLQMNSLKPEDTAVYYCAARYVERHTDYYYWGQGTQVTVSS,low polyreactivity
21,QVQLVESGGGLVQAGGSLRLSCAASGSIFLIYAMGWYRQAPGKERELVATINRGDNTYYADSVKGRFTISRDNAKNTVYLQMNSLKPEDTAVYYCAADVPWGWWDSDFSDNYYWGQGTQVTVSS,low polyreactivity
22,QVQLVESGGGLVQAGGSLRLSCAASGSIFLKYAMGWYRQAPGKERELVATISRGGSTNYADSVKGRFTISRDNAKNTVYLLMNSLKPEYTAVYYCAAKYGRPYGTYGYWGQGTQVTVSS,high polyreactivity
23,QVQLVESGGGLVQAGGSLRLSCAASGSIFLNNAMGWYRQAPGKERELVAAITRNVGSTYYADSVKGRFTISRDNAKNTVYLQMNSLKPEDSAVYYCAADRRRRYDYWGQGTQVTVSS,low polyreactivity
24,QVQLVESGGGLVQAGGSLRLSCAASGSIFLNYAMGWYRQAPGKERELVAGISNGGSTNYADSVKGRFTISRDNAKYTVYLQMNSLKPEDTAVFYCARPGYKSRGKRFDYWGQGTQVTVSS,low polyreactivity
25,QVQLVESGGGLVQAGGSLRLSCAASGSIFLPYAMGWYRQAPGKERELVAAITRRGTSTYYADSVKGRFTISRDNAKNTVYLQMNSLKPEDTAVYYCAAEIKYWYSAYAYGYWGQGTQVTVSS,high polyreactivity
26,QVQLVESGGGLVQAGGSLRLSCAASGSIFLPYAMVWSRQAPGTERELVAAITWGGDSTYADSVKGRFTISRDNAKNTVYLQMNSLKPEDTAVYYCAAGAGFESDYWGQGTQVTVSS,low polyreactivity
27,QVQLVESGGGLVQAGGSLRLSCAASGSIFLRNAMGWYRQAPGKERELVAAITKRGGSTYYADSVKGRFTISRDNAKNTVYLQMNSLKPEDTAVYYCNVDTYANTAFVRKPMYYWGQGTQVTVSS,low polyreactivity
28,QVQLVESGGGLVQAGGSLRLSCAASGSIFLSNAMGCYRQAPGKEREIVADIDWTGGDTYYADSVKGRFTISRDNAKNTVYLQMNSLKPEDTAVYYCAADYGYRNLLTEYSYWGQGTQVTVSS,low polyreactivity
29,QVQLVESGGGLVQAGGSLRLSCAASGSIFLSNMGWYREAPGKQRELVAAITIGGSTDYADSVKGRFTISRDNAKNTVFLQMNSLKPEDTAVYYCNADNPYSDGADSLGNYWGHGTQVTVSS,low polyreactivity
30,QVQLVESGGGLVQAGGSLRLSCAASGSIFLSYAMGWDRPAPGKVRELVADISRSGGSTYYADSVKGRFTISRDNAKNTVYLQMNSLKPEDTAVYYCAVYIAVYEGDYWGQGTQVTVSS,low polyreactivity
